± gives the standard deviation.
Assay: protein stability index of a GFP-peptide fusion (GPS, HEK-293T) (PSI 1-6); higher = more stable
[1] = treatment: DMSO, c terminus: a fixed tail appended
[2] = treatment: MLN4924 1 uM, 8 h, c terminus: a fixed tail appended
[3] = treatment: DMSO, c terminus: native
[4] = treatment: MLN4924 1 uM, 8 h, c terminus: native
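Further: 24-mer peptide tiles fused after GFP, lentivirally expressed, FACS-sorted into six equal bins by GFP/DsRed ratio, decoded by Illumina sequencing, PSI is the read-weighted mean bin number.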

Sequence	protein stability index [1]	protein stability index [2]	protein stability index [3]	protein stability index [4]
QGYTINVPWNQVGMRDADYIAAFL [HDAC6]	2.25 ± 0.22	2.46 ± 0.37	–	–
GMRRKSLLTRKVICKSDAPTGDVL [GOLPH3]	3.51 ± 0.18	3.53 ± 0.52	–	–
VATTARHSAAYRADPLRVSSRDKL [FUNDC2]	4.1 ± 0.096	4.1 ± 0.19	–	–
HPVPLSFEPVKSFFKGLVEAVEST [TRIM14]	2.6 ± 0.41	2.26 ± 0.42	–	–
QYEEIALKSKAEAEALYQTKFQEL [KRT71]	4.08 ± 0.35	4.18 ± 0.15	–	–
TGNSLNEPEEPSEIPERRDSGVGA [DLC1]	5.58 ± 0.19	5.59 ± 0.26	–	–
EGLLRFSSWPFSIQDVVQPLTLQV [AUP1]	2.85 ± 0.76	2.98 ± 1	–	–
LMMRGVKHHNLEGLRKRIATLFFH [IQUB]	2.34 ± 0.62	2.52 ± 0.7	–	–
GGYNLASVSVWDLAAPSLHVKEQL [TLE6]	2.38 ± 0.16	2.68 ± 0.33	–	–
YQSYFKTIEELQQKILCAKAENAR [KRT34]	2.46 ± 0.33	2.86 ± 0.5	–	–
LLGALVLLGLGVLLFSGGLSESET [PBXIP1]	2.29 ± 0.77	2.47 ± 0.89	–	–
PLCMLLLIDHLALRARNYEYLIRL [TCF25]	3.43 ± 1.1	2.92 ± 0.55	–	–
YRKQNAYIATQGSLPETFGDFWRM [PTPRD]	2.54 ± 0.39	2.12 ± 0.08	–	–
CGKSFSRSSHLVIHERTHERERLY [ZNF263]	2.71 ± 0.13	2.86 ± 0.33	–	–
SKYGRDWERYTAAVPYRLLPGIF [DHCR7]	–	–	2.87 ± 0.4	2.57 ± 0.46
LPGGTTGLQLPSTLPVSGNLLDVY [TFE3]	3.24 ± 0.31	3.23 ± 0.17	–	–
YSYASTHRLMTDARRRVCHTEDFQ [CPXM2]	2.91 ± 0.37	3.44 ± 0.36	–	–
DTQYGSSVDIWAIGCVFAELLTGQ [CDKL4]	2.8 ± 0.59	2.37 ± 0.46	–	–
AQAAVQGPVGTDFKPLNSTPATTT [ZNF207]	4.81 ± 0.24	4.89 ± 0.26	–	–
KEIQYLKDLIEEVRKARGKKRVP [ATF4]	–	–	2.52 ± 0.47	2.33 ± 0.47
RHLRSAHRRELESSGAGSSPPAAP [ZBED3]	5.09 ± 0.36	5.1 ± 0.28	–	–
IVRRFLNICENTEGAIAVHCKAGL [CDC14A]	2.36 ± 0.39	2.11 ± 0.23	–	–
FSGTPPPPVLSFRLVHTTAIEHFQ [FCHO1]	2.32 ± 0.24	2.28 ± 0.19	–	–

Sequence	protein stability index [1]	protein stability index [2]	protein stability index [3]	protein stability index [4]
VQLIQDTRIHILPSMNPDGYEVAA [CPN1]	2.55 ± 0.23	2.57 ± 0.33	–	–
LSDSGAFRRSLHDPDGLVATYISE [APMAP]	4.12 ± 0.2	4.02 ± 0.23	–	–
THLPKADIFALALTVVCAAGAEPL [WEE1]	3.6 ± 0.35	3.31 ± 0.26	–	–
ELEQQIWKERDEYITKVSEEVTRL [TRIM15]	3.94 ± 0.21	3.95 ± 0.27	–	–
RAISTSVCVRAHESVVKSEDFSLP [COX4I1]	3.9 ± 0.17	3.79 ± 0.34	–	–
QGSAVTLKTSKMALSPSATAKRIN [CDC14A]	4.22 ± 0.25	4.44 ± 0.18	–	–
SKLVPAIQNAHKNSTGSGRGKKLM [TPRG1]	4.6 ± 0.24	4.58 ± 0.16	–	–
LRARNYEYLIRLFQEWEAHRNLSQ [TCF25]	2.13 ± 0.38	2.18 ± 0.35	–	–
QCDHCERCFYTRKDVRRHLVVHTG [PLAGL1]	2.91 ± 0.074	3.19 ± 0.27	–	–
SLLRRIKGKLFTWNILKTIALGQM [SLC35F2]	2.31 ± 0.63	2.38 ± 0.23	–	–
MGATRCDFTLSKTNMARIREIMEK [CPXM2]	2.96 ± 0.088	3.3 ± 0.31	–	–
GRLIQLSRDGATGHVLLTDSEFSM [PPFIA4]	2.24 ± 0.22	2.17 ± 0.46	–	–
GASDNSIIMWDIGGRKGRTLLLQG [WDFY1]	2.15 ± 0.36	2.19 ± 0.35	–	–
TSLTALSLASASPPLSGRSTPKLT [PPFIA4]	4.17 ± 0.08	4.13 ± 0.12	–	–
QAGDKDLDGQLDFEEFVHYLQDHE [SLC25A25]	5.19 ± 0.23	4.96 ± 0.23	–	–
IFSGAASLGYGTNVAATGISQYED [APBB1IP]	3.83 ± 0.24	3.67 ± 0.16	–	–
ESTTVVTTQSAEVGAAETTLTELR [KRT18]	5.37 ± 0.076	5.29 ± 0.22	–	–
MNSLVSWQLLLFLCATHFGEPLEK [KISS1]	3.18 ± 0.67	3.07 ± 0.51	–	–
TTTLEGSPSVPCIFCEEHFPVAEQ [ZNF277]	4.17 ± 0.27	4.32 ± 0.26	–	–
DARMLDHLTKKDLRVHLKMVDSFH [PPFIA4]	2.48 ± 0.37	2.78 ± 0.44	–	–
EAQRASFLQNAVLAYVQASPVRTL [LRRC45]	2.41 ± 0.29	2.3 ± 0.26	–	–
WLAVDGLVSPSNNSKEDAFSGTDW [ATF4]	3.76 ± 0.19	3.76 ± 0.27	–	–
SVLEQLELQEKQKNEKLISLQEQL [TAF7L]	4.24 ± 0.25	4.19 ± 0.3	–	–

Sequence	protein stability index [1]	protein stability index [2]	protein stability index [3]	protein stability index [4]
CAVTFFTILLSYGVILHSLKTQSL [OR4A15]	3.59 ± 0.13	3.62 ± 0.69	–	–
SWEVVRNPLIASSFSLVKLVLRRQ [C22orf31]	2.52 ± 0.53	2.21 ± 0.28	–	–
HEEEVKGLQAQIASSGLTVEVDAP [KRT18]	5.51 ± 0.23	5.45 ± 0.27	–	–
LGKTNAKAVSEMRQKIWNNMPKDH [DYNC2LI1]	3.38 ± 0.23	3.62 ± 0.37	–	–
QVDGGANFSVDRWERKEGGGGISC [CPOX]	4.4 ± 0.12	4.48 ± 0.21	–	–
LKLQTKDGHRPEWTFYPRFSSNIH [SPATS1]	2.4 ± 0.3	2.48 ± 0.32	–	–
DPSVRLKIASLLGLLSKTAGFSPD [INTS4]	2.57 ± 0.46	2.38 ± 0.26	–	–
GHSHHSHHGHPSHQSHSLPNRRH [C10orf62]	–	–	2.97 ± 0.49	3.71 ± 0.35
DIELGCSTPLMEAAQEGHLELVKY [ANKRD17]	4.03 ± 0.29	4.18 ± 0.27	–	–
KADIGAPSGFKHVSHVGWDPQNGF [WAS]	3.2 ± 0.37	3.33 ± 0.089	–	–
GTGRSAKEQVLRKGTENLQRAQAE [FCHSD1]	5.09 ± 0.19	5.02 ± 0.4	–	–
VRKWRVKSALGAMGQWQLEVGDPA [DPCD]	2.46 ± 0.26	2.57 ± 0.21	–	–
ETEKEEEEEDREEEDENGLPRRRG [NEUROD6]	5.815 ± 0.053	5.62 ± 0.39	–	–
ANFIEKVRFLEQQNAALRGELSQA [PRPH]	3.39 ± 0.12	3.36 ± 0.39	–	–
QDELRNRSVKVICLGSLASKLSRK [FAN1]	2.96 ± 0.32	3.17 ± 0.36	–	–
CSQYDRVYCGAGVQKEHEEYMKNL [PCMTD2]	2.93 ± 0.61	2.6 ± 0.55	–	–
STESDKPTTGRVYESDSSNHCMLS [C18orf25]	4.88 ± 0.2	4.89 ± 0.32	–	–
DSYTATGYGRAPGGLSLHDYKLLK [JUNB]	3.36 ± 0.24	3.39 ± 0.21	–	–
ESGTKGLFAGFLPRIIKAAPSCAI [SLC25A39]	2.24 ± 0.12	2.47 ± 0.28	–	–
ELRRLFLVQDLVDSLKFAVLMWLL [RTN1]	2.18 ± 0.56	2.2 ± 0.29	–	–
LFTIPLLYRQHQAQIDQYVGLVTN [RTN2]	2.81 ± 0.57	2.95 ± 0.48	–	–
QRLEEETRKREDAEHNLVLFRKDV [PRPH]	5.12 ± 0.18	5.13 ± 0.17	–	–
TYWEHWTSQGQVRMRLFGQRCQKC [RTP4]	2.33 ± 0.43	2.72 ± 0.57	–	–

Sequence	protein stability index [1]	protein stability index [2]	protein stability index [3]	protein stability index [4]
FYTAITKKIFKSHLKSSRNSTSVK [P2RY14]	2.18 ± 0.33	2.32 ± 0.55	–	–
KGFPGCKLGLHDNHWVPACHSFNR [FBXO34]	2.26 ± 0.69	2.48 ± 0.15	–	–
LEQCSASIEVGGSVNFDGETIEGA [FEM1C]	5.4 ± 0.3	5.14 ± 0.57	–	–
TNALIGGPMPMSMPNVMTGTMGMA [CLINT1]	3 ± 0.16	3.03 ± 0.18	–	–
ESGLRSLRLFQKLEENGDLYLAV [WDR41]	–	–	2.08 ± 0.2	2.16 ± 0.36
RPCVPPSCHGYTLPGACNIPANVS [KRT33B]	2.79 ± 0.24	2.74 ± 0.17	–	–
GAARLALLQGAGLDVERWLKPAMT [FCHSD1]	2.5 ± 0.53	2.45 ± 0.36	–	–
SNSADDETDDPRRYQKYGYIGTHE [OAS1]	4.99 ± 0.11	4.85 ± 0.16	–	–
KSYNICFELEDSNEIFTQLYRTLF [PDS5B]	3.05 ± 0.83	2.87 ± 0.61	–	–
SPHRKRSDDSDEDEPCAISGKWTF [DLC1]	4.47 ± 0.22	4.51 ± 0.13	–	–
FHCLWDDSFPEGPERLHAIKEQLI [HDAC6]	2.47 ± 0.26	2.41 ± 0.33	–	–
RGPPHGWPKLCPCLRSGIGSSQAL [MYCL]	2.21 ± 0.65	2.26 ± 0.5	–	–
RLFLVEDLVDSLKLAVFMWLMTYV [RTN3]	2.72 ± 0.65	2.64 ± 0.78	–	–
DQTGSKSSNLLDLKNPFFRYTGTT [CARM1]	3.44 ± 0.18	3.28 ± 0.13	–	–
CVDATRETNRLGRLINHSKCGNCQ [KMT5A]	3.48 ± 0.41	3.84 ± 0.27	–	–
FAIPVGSGLGYIAGSKVKDMAGDW [SPNS1]	2.35 ± 0.28	2.21 ± 0.44	–	–
PVLGRRAVGGRLRLVPGGQRPADV [HAGHL]	3.64 ± 0.17	3.88 ± 0.36	–	–
GGAVVANYPYDKSFEHRVRGVRRT [CPN1]	4.25 ± 0.29	4.29 ± 0.15	–	–
PHVIVSTTGPNPFTTLTDRELEEY [ADD1]	4.83 ± 0.17	4.91 ± 0.091	–	–
DVEAWFNTQTEELNQQVVSSSEQL [KRT36]	4.65 ± 0.22	4.73 ± 0.15	–	–

Source: the supplement of paper PMC10567573
